Changes are numbered by the printed parent chain.
T1: murine CD1d (mouse, UniProt P11609 22-336)
T1 construct: whole, on cells; also called mouse thymocytes
T1 sequence (looked up): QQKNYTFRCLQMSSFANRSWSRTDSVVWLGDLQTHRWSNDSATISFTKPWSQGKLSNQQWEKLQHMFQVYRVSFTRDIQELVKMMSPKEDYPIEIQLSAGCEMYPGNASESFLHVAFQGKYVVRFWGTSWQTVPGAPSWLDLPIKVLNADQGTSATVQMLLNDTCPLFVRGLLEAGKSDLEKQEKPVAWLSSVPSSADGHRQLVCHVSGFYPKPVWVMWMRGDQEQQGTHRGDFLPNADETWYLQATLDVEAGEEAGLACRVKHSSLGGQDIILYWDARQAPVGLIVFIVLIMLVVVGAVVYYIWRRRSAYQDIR

T2: human CD1d (human, UniProt P15813 20-335)
T2 construct: whole, on cells; also called C1R-CD1d; CR1-CD1d
T2 sequence (looked up): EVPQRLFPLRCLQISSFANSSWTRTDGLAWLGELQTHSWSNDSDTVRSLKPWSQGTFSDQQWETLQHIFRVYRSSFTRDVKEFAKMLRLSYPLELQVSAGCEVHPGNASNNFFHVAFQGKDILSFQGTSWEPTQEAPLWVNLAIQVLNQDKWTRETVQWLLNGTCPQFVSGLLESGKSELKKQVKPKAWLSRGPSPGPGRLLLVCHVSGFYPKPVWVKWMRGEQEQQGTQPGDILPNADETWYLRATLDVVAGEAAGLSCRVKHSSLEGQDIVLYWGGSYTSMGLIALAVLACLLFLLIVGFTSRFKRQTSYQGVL

T3: human CD1c (human, UniProt P29017 18-333)
T3 construct: whole, on cells; also called C1R-CD1c; CR1-CD1c
T3 sequence (looked up): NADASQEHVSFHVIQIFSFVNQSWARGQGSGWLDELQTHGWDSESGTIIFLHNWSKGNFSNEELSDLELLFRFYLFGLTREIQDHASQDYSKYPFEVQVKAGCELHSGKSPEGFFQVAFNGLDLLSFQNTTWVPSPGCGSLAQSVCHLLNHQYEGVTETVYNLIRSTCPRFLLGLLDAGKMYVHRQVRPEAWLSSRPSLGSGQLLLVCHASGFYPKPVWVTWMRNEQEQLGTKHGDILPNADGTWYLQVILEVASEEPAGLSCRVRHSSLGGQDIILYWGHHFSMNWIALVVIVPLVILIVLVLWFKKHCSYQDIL

B1: human anti-human CD1a monoclonal antibody CR2115 (antibody, human IgG1, V domains shown)
VH: QVQLVQSGAEAKKPGASVKVSCKASGYTFTGYYMHWVRQAPGQGLEWMGWISAYNGNTNYAQKLQGRVTMTTDTSTSTAYMELRSLRSDDTAVYYCARSQMPSYFDYWGQGTLVTVSS
VL: SSELTQDPAVSVALGQTVRITCQGDSLRSYYASWYQQKPGQAPVLVIYGKNNRPSGIPDRFSGSSSGNTASLTITGAQAEDEADYYCNSRDSSGNHVVFGGGTKLTVLG
notes: Fully human IgG1 lambda made from scFv SC02-115; also called 02-115
B2: human anti-human CD1a monoclonal antibody CR2114 (antibody, human IgG1, kappa, V domains shown)
VH: EVQLVESGGGLVQPGGSLRLSCAASGFTFSSYSMNWVRQAPGKGLEWVSYISSSSSTIYYADSVKGRFTISRDNAKNSLYLQMNSLRDEDTAVYYCAKETWWQSFDYWGQGTLVTVSS
VL: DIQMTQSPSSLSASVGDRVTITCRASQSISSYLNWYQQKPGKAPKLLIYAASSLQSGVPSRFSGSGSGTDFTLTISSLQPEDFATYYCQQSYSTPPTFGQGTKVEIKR
notes: Fully human IgG1 kappa made from scFv SC02-114; unlabeled or biotinylated; also called 02-114
B3: human anti-human CD1a monoclonal antibody CR2113 (antibody, human IgG1, kappa, V domains shown)
VH: QVQLQESGAGLLKPSETLSLTCAVYGGSFSGYYWSWIRQPPGKGLEWIGYIYYSGSTNYNPSLKSRVTISVDTSKNQFSLKLSSVTAADTAVYYCAKAPYMMYFDSWGQGTLVTVSS
VL: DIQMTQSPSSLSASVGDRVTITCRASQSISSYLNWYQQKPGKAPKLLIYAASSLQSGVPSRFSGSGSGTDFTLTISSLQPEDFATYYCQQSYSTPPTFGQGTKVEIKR
notes: Fully human IgG1 kappa made from scFv SC02-113, expressed in 293T cells; Used unlabeled, biotinylated or Alexa488-labeled depending on the assay; also called 02-113
B4: human anti-human CD1a monoclonal antibody CR2117 (antibody, human IgG1, kappa, V domains shown)
VH: EVQLVESGGGLVHPGGSLRLSCAGSGFTFSSYAMHWVRQAPGKGLEWVSAIGTGGGTYYADSVKGRFTISRDNAKNSLYLQMNSLRAEDTAVYYCARSTPWFSFDYWGQGTLVTVSS
VL: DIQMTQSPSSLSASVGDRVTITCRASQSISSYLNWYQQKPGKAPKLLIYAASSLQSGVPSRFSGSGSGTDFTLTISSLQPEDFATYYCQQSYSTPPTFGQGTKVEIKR
notes: Fully human IgG1 kappa made from scFv SC02-117; unlabeled or biotinylated; also called 02-117
B5: human anti-human CD1a monoclonal antibody CR2118 (antibody, human IgG1, kappa, V domains shown)
VH: B4 VH with G52S, T99A, P100W, F102L, Y106S
VL: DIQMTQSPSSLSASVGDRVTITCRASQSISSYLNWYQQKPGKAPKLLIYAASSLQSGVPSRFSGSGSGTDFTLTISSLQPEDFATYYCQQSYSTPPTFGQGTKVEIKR
notes: Fully human IgG1 kappa made from scFv SC02-118; unlabeled or biotinylated; also called 02-118

What was measured:
murine CD1d [1] = molecular target: T1, murine CD1d; test: flow cytometry on freshly prepared mouse thymocytes
human CD1b = molecular target: T4, human CD1b (human, UniProt P29016 18-333); test: flow cytometry on C1R-CD1b transfectant
T4 construct: whole, on cells; also called C1R-CD1b; CR1-CD1b
Experimental: (§1) The human anti-CD1a IgG1 antibodies were validated for their ability to bind to CD1a transfected cell lines essentially as described for scFvs (see Example 3). The purified anti-CD1a antibodies were diluted to various concentrations (depicted in the figures) and detected with mouse anti-human IgGκ labeled with FITC or FITC-labeled streptavidin in the case of biotinylated human anti-CD1a antibodies. In addition to the cell lines C1R-CD1a and C1R mock transfected described in Example 3, the cell lines C1R-CD1b , C1R-CD1c , C1R-CD1d and B16-CD1a and B16 mock transfected were tested. Each staining was repeated three times and compared to the negative control irrelevant isotype control antibody called CR2027 using the Kolmogorov-Simov test. To calculate K-S statistics, an overlay of histograms of isotype control antibody and anti-CD1a antibody was made. The log shift between the peaks of the histograms was determined and used to calculate the D-value. The greater the log shift of the anti-CD1a antibody response peak from the isotype control antibody response peak, the larger the D-value.
(§2) No specific staining of any of the six human anti-CD1a monoclonal antibodies was detected on the C1R-CD1b or C1R-CD1d transfectants (see FIG. 4). Slight, but significant, staining (p<0.05) was detected for the two antibodies CR2114 and CR2117 on C1R-CD1c transfectants (see FIG. 4). […] In addition, staining was also carried out on freshly prepared mouse thymocytes, which express murine […] at low levels.

murine CD1d [2] = molecular target: T1, murine CD1d; test: flow cytometry on mouse thymocytes, K-S statistics against isotype control
Experimental: as §1, §2

human CD1d = molecular target: T2, human CD1d; test: flow cytometry on C1R-CD1d transfectant
Experimental: as §1, §2

human CD1c = molecular target: T3, human CD1c; test: flow cytometry on C1R-CD1c transfectant
Experimental: as §1
No specific staining of any of the six human anti-CD1a monoclonal antibodies was detected on the C1R-CD1b or C1R-CD1d transfectants (see FIG. 4). Slight, but significant, staining (p<0.05) was detected for the two antibodies CR2114 and CR2117 on C1R-CD1c transfectants (see FIG. 4). […]

murine CD1a = molecular target: T5, murine CD1a (mouse); test: flow cytometry on mouse thymocytes, K-S statistics against isotype control
T5 construct: whole, on cells; no such UniProt entry is known to me (mice are known to carry only CD1d genes); also called mouse thymocytes
Experimental: as §1, §2

human CD1a [3] = molecular target: T6, human CD1a (human, UniProt P06126 17-327); test: competition flow cytometry on B16-CD1a cells: unlabeled antibody for 30 min, then biotin-labeled CR2118 at 2.5 µg/ml, FITC-streptavidin
T6 construct: whole, on cells; also called C1R-CD1a; CR1-CD1a
Experimental: (§3) B16 mouse melanoma cells expressing human CD1a were stained with unlabeled CR2113, CR2114, CR2117, CR2118 or the negative control CR2027 at different concentrations (0.1, 0.3, 1, 3, 10, 30, 50, 100 μg/ml) for 30 minutes and then stained with one of the above antibodies labeled with biotin as described above for five minutes at a concentration of 2.5 μg/ml. Detection was by FITC-labeled streptavidin incubated for 20 minutes. Furthermore, staining was performed as described above (see Example 3). Each staining was done three successive times and the D-value calculated with K-S statistics (see above). The staining of unlabeled control antibody CR2027 is shown by the dotted line staining using the test antibody is depicted with a solid line. CR2113 was able to compete with itself in a dose dependent manner, however none of the other antibodies could compete with biotinylated CR2113 for binding (see FIG. 6A). […] In contrast, unlabeled CR2113 was able to compete for binding of CR2114 (see FIG. 6B), CR2117 (see FIG. 6C) and CR2118 (see FIG. 6D) to B16-CD1a transfectants in a concentration dependent manner. Neither CR2117 nor CR2118 was able to compete with CR2114 for binding to CD1a. This could be due to sub-optimal affinity.

human CD1a [4] = molecular target: T6, human CD1a; test: flow cytometry on B16-CD1a transfectants, biotinylated antibody detected with FITC-labeled streptavidin; D-value versus isotype control CR2027
Experimental: as §1
(§4) Binding curves were generated for the antibodies CR2113, CR2114, CR2117 and CR2118 by measuring binding on B16-CD1a transfected cells with FACS as above using the concentrations of antibody ranging from 0.01 to 10 μg/ml. […]

human CD1a [5] = molecular target: T6, human CD1a; test: competition flow cytometry on B16-CD1a cells: unlabeled antibody for 30 min, then biotin-labeled CR2113 at 2.5 µg/ml, FITC-streptavidin
Experimental: as §3

human CD1a [6] = molecular target: T6, human CD1a; test: competition flow cytometry on B16-CD1a cells: unlabeled antibody for 30 min, then biotin-labeled CR2114 at 2.5 µg/ml, FITC-streptavidin
Experimental: as §3

human CD1a [7] = molecular target: T6, human CD1a; test: flow cytometry on B16-CD1a transfectants, unlabeled antibody detected with FITC-labeled mouse anti-human IgG kappa; D-value versus isotype control CR2027
Experimental: as §1, §4

T6 sequence (P06126 17-327): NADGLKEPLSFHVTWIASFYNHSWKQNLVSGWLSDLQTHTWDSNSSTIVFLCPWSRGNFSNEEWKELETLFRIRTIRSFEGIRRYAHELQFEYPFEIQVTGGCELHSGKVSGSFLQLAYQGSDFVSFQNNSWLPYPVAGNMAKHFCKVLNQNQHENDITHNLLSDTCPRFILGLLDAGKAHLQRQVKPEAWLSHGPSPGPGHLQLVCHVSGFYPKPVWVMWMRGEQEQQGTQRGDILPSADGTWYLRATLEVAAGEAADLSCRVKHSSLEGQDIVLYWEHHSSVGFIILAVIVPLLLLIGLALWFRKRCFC
T4 sequence (P29016 18-333): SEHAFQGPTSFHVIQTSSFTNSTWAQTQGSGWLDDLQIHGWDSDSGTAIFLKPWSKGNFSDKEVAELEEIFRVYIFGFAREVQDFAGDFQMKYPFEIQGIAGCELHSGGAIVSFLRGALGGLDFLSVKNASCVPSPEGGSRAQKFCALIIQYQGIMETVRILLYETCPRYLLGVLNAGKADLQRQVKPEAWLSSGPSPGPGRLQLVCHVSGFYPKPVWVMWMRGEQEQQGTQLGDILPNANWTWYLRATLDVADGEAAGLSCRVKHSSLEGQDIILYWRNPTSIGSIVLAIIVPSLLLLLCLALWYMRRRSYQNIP

Binder | binding result (murine CD1d [1]) | binding result (human CD1b) | D-value (murine CD1d [2]) | binding result (human CD1d) | binding result (human CD1c) | D-value (murine CD1a) | IC50 (read off the curve) (human CD1a [3]) [µg/mL] | EC50 (read off the curve) (human CD1a [4]) [microgr/ml] | IC50 (read off the curve) (human CD1a [5]) [µg/mL] | IC50 (read off the curve) (human CD1a [6]) [µg/mL] | binding result (human CD1a [7])
B1 | no binding | no binding | 0 | no binding |  |  |  |  |  |  | 
B2 | no binding | no binding | 0 | no binding | binds | 0 |  |  |  |  | 
B3 | no binding | no binding | 0 | no binding |  | 0 | ~0.6 | ~0.1 | ~3 | ~0.5 | 
B4 | no binding | no binding | 0 | no binding | binds | 0 |  | ~2 |  |  | 
B5 | no binding | no binding | 0 | no binding |  | 0 |  |  |  |  | binds
